Measurements published in patent US20160145657A1, “Methods and Materials for Producing 7-Carbon Chemicals via a C9 Route” (INVISTA North America S.á.r.l., priority 2014, published 2016).

What was measured:
Type in all cases: biochemical
[1] = ω-transaminase activity, 7-aminoheptanol to 7-oxoheptanol, L-alanine formation by RP-HPLC; conditions: for acceptance of 7-aminoheptanol as substrate (conversion of pyruvate to L-alanine) against the empty vector control: cell free extract, 10 mM 7-aminoheptanol, 10 mM pyruvate, pH 7.5, 25° C., 4 h, FIG. 17; for acceptance of 7-oxoheptanol as substrate forming 7-aminoheptanol, concluded from reversibility: inferred from reverse direction assay and Example 1
Description: A nucleotide sequence encoding an N-terminal His-tag was added to the Chromobacterium violaceum, Pseudomonas syringae and Rhodobacter sphaeroides nucleic acids encoding the ω-transaminases of SEQ ID NOs: 7, 9 and 10, respectively (see FIG. 6) such that N-terminal HIS tagged ω-transaminases could be produced. The modified genes were cloned into a pET21a expression vector under the T7 promoter. Each expression vector was transformed into a BL21[DE3] E. coli host. Each resulting recombinant E. coli strain were cultivated at 37° C. in a 250 mL shake flask culture containing 50 mL LB media and antibiotic selection pressure, with shaking at 230 rpm. Each culture was induced overnight at 16° C. using 1 mM IPTG.
(§1) The pellet from each induced shake flask culture was harvested via centrifugation. Each pellet was resuspended and lysed via sonication. The cell debris was separated from the supernatant via centrifugation and the cell free extract was used immediately in enzyme activity assays.
(§2) Enzyme activity assays in the reverse direction (i.e., 7-aminoheptanol to 7-oxoheptanol) were performed in a buffer composed of a final concentration of 50 mM HEPES buffer (pH=7.5), 10 mM 7-aminoheptanol, 10 mM pyruvate, and 100 μM pyridoxyl 5′ phosphate. Each enzyme activity assay reaction was initiated by adding cell free extract of the ω-transaminase gene product or the empty vector control to the assay buffer containing the 7-aminoheptanol and then incubated at 25° C. for 4 h, with shaking at 250 rpm. The formation of L-alanine was quantified via RP-HPLC.

[2] = ω-transaminase activity, forward direction (pimelate semialdehyde to 7-aminoheptanoate), pyruvate formation by RP-HPLC; conditions: for acceptance of pimelate semialdehyde as substrate (conversion of L-alanine to pyruvate) against the empty vector control: cell free extract, 10 mM pimelate semialdehyde, 10 mM L-alanine, pH 7.5, 25° C., 4 h, FIG. 14; for reversibility of ω-transaminase activity: pimelate semialdehyde accepted, 7-aminoheptanoate synthesized: conclusion from reverse and forward assays of Example 1
Description: (§3) A nucleotide sequence encoding an N-terminal His-tag was added to the nucleic acid sequences from Chromobacterium violaceum, Pseudomonas syringae, Rhodobacter sphaeroides, and Vibrio fluvialis encoding the ω-transaminases of SEQ ID NOs: 7, 9, 10 and 12, respectively (see FIG. 6) such that N-terminal HIS tagged ω-transaminases could be produced. Each of the resulting modified genes was cloned into a pET21a expression vector under control of the T7 promoter and each expression vector was transformed into a BL21[DE3] E. coli host. The resulting recombinant E. coli strains were cultivated at 37° C. in a 250 mL shake flask culture containing 50 mL LB media and antibiotic selection pressure, with shaking at 230 rpm. Each culture was induced overnight at 16° C. using 1 mM IPTG.
as §1
Enzyme activity in the forward direction (i.e., pimelate semialdehyde to 7-aminoheptanoate) was confirmed for the transaminases of SEQ ID NO 9, SEQ ID NO 10 and SEQ ID NO 12. Enzyme activity assays were performed in a buffer composed of a final concentration of 50 mM HEPES buffer (pH=7.5), 10 mM pimelate semialdehyde, 10 mM L-alanine and 100 μM pyridoxyl 5′ phosphate. Each enzyme activity assay reaction was initiated by adding a cell free extract of the ω-transaminase gene product or the empty vector control to the assay buffer containing the pimelate semialdehyde and incubated at 25° C. for 4 h, with shaking at 250 rpm. The formation of pyruvate was quantified via RP-HPLC.

[3] = ω-transaminase activity, reverse direction (7-aminoheptanoate to pimelate semialdehyde), L-alanine formation by RP-HPLC; conditions: cell free extract, 10 mM 7-aminoheptanoate, 10 mM pyruvate, pH 7.5, 25° C., 4 h; FIG. 13
Description: as §3, §1
as §2, with “7-aminoheptanoate” for “7-aminoheptanol”, “pimelate semialdehyde)” for “7-oxoheptanol)”, “7-aminoheptanoate,” for “7-aminoheptanol,”, “pyruvate” for “pyruvate,”, “and” for “and then”, “L-alanine from pyruvate” for “L-alanine”

[4] = carboxylate reductase activity, N7-acetyl-7-aminoheptanoate to N7-acetyl-7-aminoheptanal, NADPH consumption at 340 nm; conditions: purified enzyme enhanced by sfp gene product, 2 mM N7-acetyl-7-aminoheptanoate, pH 7.5, room temperature, 20 min; FIG. 10
Description: The activity of each of the N-terminal His-tagged carboxylate reductases of SEQ ID NOs: 3, 5, and 6 (see Examples 2 and 3, and FIG. 6) for converting N7-acetyl-7-aminoheptanoate to N7-acetyl-7-aminoheptanal was assayed in triplicate in a buffer composed of a final concentration of 50 mM HEPES buffer (pH=7.5), 2 mM N7-acetyl-7-aminoheptanoate, 10 mM MgCl2, 1 mM ATP, and 1 mM NADPH. The assays were initiated by adding purified carboxylate reductase and phosphopantetheine transferase or the empty vector control to the assay buffer containing the N7-acetyl-7-aminoheptanoate then incubated at room temperature for 20 min. The consumption of NADPH was monitored by absorbance at 340 nm.

Which results are given for “SEQ ID NO 10: Rhodobacter sphaeroides ω-transaminase, Genbank Accession No. ABA81135.1”?
acceptance of 7-aminoheptanol as substrate (conversion of pyruvate to L-alanine) against the empty vector control [1]: accepted 7-aminoheptanol as substrate; acceptance of 7-oxoheptanol as substrate forming 7-aminoheptanol, concluded from reversibility [1]: accept 7-oxoheptanol as substrate and form 7-aminoheptanol; acceptance of pimelate semialdehyde as substrate (conversion of L-alanine to pyruvate) against the empty vector control [2]: accepted pimelate semialdehyde as substrate; reversibility of ω-transaminase activity: pimelate semialdehyde accepted, 7-aminoheptanoate synthesized [2]: accepted pimelate semialdehyde as substrate and synthesized 7-aminoheptanoate as a reaction product; acceptance of 7-aminoheptanoate as substrate (conversion of pyruvate to L-alanine) against the empty vector control [3]: accepted 7-aminoheptanote as substrate

B1: SEQ ID NO 9: Pseudomonas syringae ω-transaminase, Genbank Accession No. AAY39893.1 (protein)
chain: MSANNPQTLEWQALSSEHHLAPFSDYKQLKEKGPRIITRAEGVYLWDSEGNKILDGMSGLWCVAIGYGREELADAASKQMRELPYYNLFFQTAHPPVLELAKAISDIAPEGMNHVFFTGSGSEGNDTMLRMVRHYWALKGQPNKKTIISRVNGYHGSTVAGASLGGMTYMHEQGDLPIPGVVHIPQPYWFGEGGDMTPDEFGIWAAEQLEKKILELGVENVGAFIAEPIQGAGGVIVPPDSYWPKIKEILSRYDILFAADEVICGFGRTSEWFGSDFYGLRPDMMTIAKGLTSGYVPMGGLIVRDEIVAVLNEGGDFNHGFTYSGHPVAAAVALENIRILREEKIVERVRSETAPYLQKRLRELSDHPLVGEVRGVGLLGAIELVKDKTTRERYTDKGAGMICRTFCFDNGLIMRAVGDTMIIAPPLVISFAQIDELVEKARTCLDLTLAVLQG
Which “acceptance of 7-aminoheptanol as substrate (conversion of pyruvate to L-alanine) against the empty vector control” value [1] does the source give for B1 here?
Its value is “accepted 7-aminoheptanol as substrate”.

And the “acceptance of 7-oxoheptanol as substrate forming 7-aminoheptanol, concluded from reversibility” value [1]?
Its value is “accept 7-oxoheptanol as substrate and form 7-aminoheptanol”.

And the “acceptance of pimelate semialdehyde as substrate (conversion of L-alanine to pyruvate) against the empty vector control” value [2]?
The value was “accepted pimelate semialdehyde as substrate”.

And the “reversibility of ω-transaminase activity: pimelate semialdehyde accepted, 7-aminoheptanoate synthesized” value [2]?
The value was “accepted pimelate semialdehyde as substrate and synthesized 7-aminoheptanoate as a reaction product”.

What about the “acceptance of 7-aminoheptanoate as substrate (conversion of pyruvate to L-alanine) against the empty vector control” value [3] of the same molecule?
Its value is “accepted 7-aminoheptanote as substrate”.

B2: SEQ ID NO 3: Mycobacterium smegmatis carboxylate reductase, Genbank Accession No. ABK71854.1 (protein)
chain: MTSDVHDATDGVTETALDDEQSTRRIAELYATDPEFAAAAPLPAVVDAAHKPGLRLAEILQTLFTGYGDRPALGYRARELATDEGGRTVTRLLPRFDTLTYAQVWSRVQAVAAALRHNFAQPIYPGDAVATIGFASPDYLTLDLVCAYLGLVSVPLQHNAPVSRLAPILAEVEPRILTVSAEYLDLAVESVRDVNSVSQLVVFDHHPEVDDHRDALARAREQLAGKGIAVTTLDAIADEGAGLPAEPIYTADHDQRLAMILYTSGSTGAPKGAMYTEAMVARLWTMSFITGDPTPVINVNFMPLNHLGGRIPISTAVQNGGTSYFVPESDMSTLFEDLALVRPTELGLVPRVADMLYQHHLATVDRLVTQGADELTAEKQAGAELREQVLGGRVITGFVSTAPLAAEMRAFLDITLGAHIVDGYGLTETGAVTRDGVIVRPPVIDYKLIDVPELGYFSTDKPYPRGELLVRSQTLTPGYYKRPEVTASVFDRDGYYHTGDVMAETAPDHLVYVDRRNNVLKLAQGEFVAVANLEAVFSGAALVRQIFVYGNSERSFLLAVVVPTPEALEQYDPAALKAALADSLQRTARDAELQSYEVPADFIVETEPFSAANGLLSGVGKLLRPNLKDRYGQRLEQMYADIAATQANQLRELRRAAATQPVIDTLTQAAATILGTGSEVASDAHFTDLGGDSLSALTLSNLLSDFFGFEVPVGTIVNPATNLAQLAQHIEAQRTAGDRRPSFTTVHGADATEIRASELTLDKFIDAETLRAAPGLPKVTTEPRTVLLSGANGWLGRFLTLQWLERLAPVGGTLITIVRGRDDAAARARLTQAYDTDPELSRRFAELADRHLRVVAGDIGDPNLGLTPEIWHRLAAEVDLVVHPAALVNHVLPYRQLFGPNVVGTAEVIKLALTERIKPVTYLSTVSVAMGIPDFEEDGDIRTVSPVRPLDGGYANGYGNSKWAGEVLLREAHDLCGLPVATFRSDMILAHPRYRGQVNVPDMFTRLLLSLLITGVAPRSFYIGDGERPRAHYPGLTVDFVAEAVTTLGAQQREGYVSYDVMNPHDDGISLDVFVDWLIRAGHPIDRVDDYDDWVRRFETALTALPEKRRAQTVLPLLHAFRAPQAPLRGAPEPTEVFHAAVRTAKVGPGDIPHLDEALIDKYIRDLREFGLI
For B2, which “acceptance of N7-acetyl-7-aminoheptanoate as substrate (NADPH consumption) against the empty vector control” value [4] is on record?
The value was “accepted N7-acetyl-7-aminoheptanoate as substrate”.

B3: SEQ ID NO 12: Vibrio fluvialis ω-transaminase, Genbank Accession No. AEA39183.1 (protein)
chain: MNKPQSWEARAETYSLYGFTDMPSLHQRGTVVVTHGEGPYIVDVNGRRYLDANSGLWNMVAGFDHKGLIDAAKAQYERFPGYHAFFGRMSDQTVMLSEKLVEVSPFDSGRVFYTNSGSEANDTMVKMLWFLHAAEGKPQKRKILTRWNAYHGVTAVSASMTGKPYNSVFGLPLPGFVHLTCPHYWRYGEEGETEEQFVARLARELEETIQREGADTIAGFFAEPVMGAGGVIPPAKGYFQAILPILRKYDIPVISDEVICGFGRTGNTWGCVTYDFTPDAIISSKNLTAGFFPMGAVILGPELSKRLETAIEAIEEFPHGFTASGHPVGCAIALKAIDVVMNEGLAENVRRLAPRFEERLKHIAERPNIGEYRGIGFMWALEAVKDKASKTPFDGNLSVSERIANTCTDLGLICRPLGQSVVLCPPFILTEAQMDEMFDKLEKALDKVFAEVA
With B3 as the molecule, how does the “acceptance of pimelate semialdehyde as substrate (conversion of L-alanine to pyruvate) against the empty vector control” value [2] read?
The value was “accepted pimelate semialdehyde as substrate”.

And the “reversibility of ω-transaminase activity: pimelate semialdehyde accepted, 7-aminoheptanoate synthesized” value [2]?
The value was “accepted pimelate semialdehyde as substrate and synthesized 7-aminoheptanoate as a reaction product”.

What about the “acceptance of 7-aminoheptanoate as substrate (conversion of pyruvate to L-alanine) against the empty vector control” value [3] of the same molecule?
The value was “accepted 7-aminoheptanote as substrate”.
